Experimental data as given in patent US20130123481A1, “MODIFIED NUCLEOSIDES, NUCLEOTIDES, AND NUCLEIC ACIDS, AND USES THEREOF” (MODERNA THERAPEUTICS, priority 2011, published 2013).

What was measured:
[1] = test system: peripheral blood mononuclear cells (PBMC); experiment: In Vitro PBMC Studies: Percent modification - G-CSF expression; type: cell-based, human; conditions: 480 ng mRNA
Description: 480 ng of G-CSF mRNA modified with 5-methylcytosine (5mC) and pseudouridine (pseudoU) or unmodified G-CSF mRNA was transfected with 0.4 uL of Lipofectamine 2000 into peripheral blood mononuclear cells (PBMC) from three normal blood donors (D1, D2, and D3). […] The supernatant was harvested and run by ELISA 22 hours after transfection to determine the protein expression. The expression of IFN-alpha and TNF-alpha may be a secondary effect from the transfection of the G-CSF mRNA.

human PBMC = experiment: Cytokine Study: PBMC - G-CSF production (G-CSF ELISA); type: cell-based; conditions: mRNA with Lipofectamine 2000
Description: (§1) The plates were then incubated at 37° C.
(§2) Each condition was done in duplicate.
In the G-CSF ELISA, background signal from the Lipofectamine 2000 (LF2000) untreated condition was subtracted at each time point.

[2] = test system: human PBMC, tumor necrosis factor alpha (TNF-alpha)
Description: 50 mL of human blood from two donors was received from Research Blood Components (lots KP30928 and KP30931) in sodium heparin tubes. For each donor, the blood was pooled and diluted to 70 mL with DPBS (SAFC Bioscience 59331C, lot 071M8408) and split evenly between two 50 mL conical tubes. 10 mL of Ficoll Paque (GE Healthcare 17-5442-03, lot 10074400) was gently dispensed below the blood layer. The tubes were centrifuged at 2000 rpm for 30 minutes with low acceleration and braking. The tubes were removed and the buffy coat PBMC layers were gently transferred to a fresh 50 mL conical and washed with DPBS. The tubes were centrifuged at 1450 rpm for 10 minutes.
The supernatant was aspirated and the PBMC pellets were resuspended and washed in 50 mL of DPBS. The tubes were centrifuged at 1250 rpm for 10 minutes. This wash step was repeated, and the PBMC pellets were resuspended in 19 mL of Optimem I (Gibco 11058, lot 1072088) and counted. The cell suspensions were adjusted to a concentration of 3.0×10̂6 cells/mL live cells.
These cells were then plated on five 96 well tissue culture treated round bottom plates (Costar 3799) per donor at 50 uL per well. Within 30 minutes, transfection mixtures were added to each well at a volume of 50 uL per well. After 4 hours post transfection, the media was supplemented with 10 uL of Fetal Bovine Serum (Gibco 10082, lot 1012368)
The plate containing the material to be transfected was incubated for 20 minutes. The transfection mixtures were then transferred to each of the human PBMC plates at 50 uL per well. The plates were then incubated at 37° C. At 2, 4, 8, 20, and 44 hours each plate was removed from the incubator, and the supernatants were frozen.
The ability of unmodified and modified mRNA to produce the encoded protein was assessed (G-CSF production) over time as was the ability of the mRNA to trigger innate immune recognition as measured by interferon-alpha production.

[3] = test system: human PBMC, interferon-alpha (IFN-alpha); experiment: Cytokine Study: PBMC - IFN-alpha production (ELISA)
Description: as §1, §2

[4] = Stability of Modified RNA - storage, gel electrophoresis; type: physicochemical
Description: Stability experiments were conducted to obtain a better understanding of storage conditions to retain the integrity of modified RNA. […] After the mRNA had been stored for 0 hours, 2 hours, 6 hours, 24 hours, 48 hours, 5 days and 14 days, the mRNA was analyzed by gel electrophoresis using a Bio-Rad EXPERION™ system. The modified, unmodified and lipoplexed G-CSF mRNA was also stored in RNASTABLE® (Biomatrica, Inc. San Diego, Calif.) at 40° C. or water at −80° C. or 40° C. for 35 days before being analyzed by gel electrophoresis.

[5] = test system: Human primary foreskin fibroblasts (BJ fibroblasts); experiment: Cell Viability in BJ Fibroblasts (CELL TITER GLO, repeated transfection); type: cell-based; conditions: normalized to untreated = 100%
Description: Control samples of Lipofectamine 2000 (LF2000) and unmodified G-CSF mRNA were also transfected. The modified mRNA or control samples were transfected daily for 4 days. The viability of the cells after transfection was evaluated 6 hours and 24 hours after the first transfection (Ti, 6 hours or T1, 24 hours), and 24 hours after the second (T2, 24 hours) and fourth transfection (T4, 24 hours).
To determine cell viability, the culture medium was completely removed and the cells were washed once with 600 ul of sterile PBS without Ca2+/Mg2+ (Gibco/Life Technologies, Manassas, Va.) in order to rinse-off loosely attached cells. PBS was removed and discarded. The cleaned fibroblasts in each well were treated with 220 ul of a diluted CELL TITER GLO® (Promega, catalog #G7570) stock solution (the CELL TITER GLO® stock solution was further diluted 1:1 with an equal amount of sterile PBS). A sterile pipet tip was used to scratch the cells off the plate and accelerate the lysis process.
For two time intervals, T1, 24 hours and T2, 24 hours, an alternative protocol was applied. Cells were washed with PBS, as described above, and subsequently trypsinized with Trypsin/EDTA solution (Gibco/Life Technologies, Manassas, Va.). Cells were detached and collected in 500 ul of medium containing trypsin inhibitor. Cells were harvested by centrifugation at 1200 rcf for 5 minutes. The cell pellet was resuspended in 500 ul PBS. This cell suspension was kept on ice, and 100 ul of this was combined with 100 ul of undiluted Cell Titer Glo solution.
All of the CELL TITER GLO® lysates were then incubated at room temperature for 20 minutes. 20 ul of the lysates were transferred to a white opaque polystyrene 96-well plate (Corning, Manassas, Va.) and combined with 100 ul diluted CELL TITER GLO® solution. The plate reader used was from BioTek Synergy H1 (BioTek, Winooski, Vt.) and the absolute values were normalized to signal of the untreated BJ Fibroblasts to 100% cell vitality.

female BALB/C mice = experiment: In Vivo Detection of Innate Immune Response Study - human G-CSF protein in serum; conditions: human G-CSF in mouse serum; I.M.; 8 hours after dosing
Description: Blood is collected at 8 hours after dosing.

[6] = test system: female BALB/C mice, interferon-alpha (IFN-alpha); experiment: In Vivo Detection of Innate Immune Response Study - mouse IFN-alpha in serum
Description: Blood is collected at 8 hours after dosing. Using ELISA the protein levels of G-CSF, TNF-alpha and IFN-alpha is determined by ELISA.

Molecule: Luciferase: control mRNA encoding luciferase (SEQ ID NO: 3), Cap 1, fully modified with 5-methylcytosine and pseudouridine [reference compound]
- G-CSF Expression ([1]; PBMC donor D1, 0.4 uL Lipofectamine 2000, ELISA 22 hours after transfection): 90.2 pg/mL
- G-CSF Expression ([1]; PBMC donor D2, 22 hours after transfection): 0.0 pg/mL
- G-CSF Expression ([1]; PBMC donor D3, 22 hours after transfection): 22.1 pg/mL
- G-CSF: 3 Donor Average (human PBMC): 18 pg/mL

B1: G-CSF 5-methyl cytosine/pseudouridine: mRNA encoding human G-CSF (SEQ ID NO: 1), Cap 1, 100% substitution with 5-methyl cytidine and pseudouridine (nucleic acid, listed as Homo Sapiens)
chain: GGGAAAUAAGAGAGAAAAGAAGAGUAAGAAGAAAUAUAAGAGCCACCAUGGCCGGUCCCGCGACCCAAAGCCCCAUGAAACUUAUGGCCCUGCAGUUGCUGCUUUGGCACUCGGCCCUCUGGACAGUCCAAGAAGCGACUCCUCUCGGACCUGCCUCAUCGUUGCCGCAGUCAUUCCUUUUGAAGUGUCUGGAGCAGGUGCGAAAGAUUCAGGGCGAUGGAGCCGCACUCCAAGAGAAGCUCUGCGCGACAUACAAACUUUGCCAUCCCGAGGAGCUCGUACUGCUCGGGCACAGCUUGGGGAUUCCCUGGGCUCCUCUCUCGUCCUGUCCGUCGCAGGCUUUGCAGUUGGCAGGGUGCCUUUCCCAGCUCCACUCCGGUUUGUUCUUGUAUCAGGGACUGCUGCAAGCCCUUGAGGGAAUCUCGCCAGAAUUGGGCCCGACGCUGGACACGUUGCAGCUCGACGUGGCGGAUUUCGCAACAACCAUCUGGCAGCAGAUGGAGGAACUGGGGAUGGCACCCGCGCUGCAGCCCACGCAGGGGGCAAUGCCGGCCUUUGCGUCCGCGUUUCAGCGCAGGGCGGGUGGAGUCCUCGUAGCGAGCCACCUUCAAUCAUUUUUGGAAGUCUCGUACCGGGUGCUGAGACAUCUUGCGCAGCCGUGAAGCGCUGCCUUCUGCGGGGCUUGCCUUCUGGCCAUGCCCUUCUUCUCUCCCUUGCACCUGUACCUCUUGGUCUUUGAAUAAAGCCUGAGUAGGAAG
modifications: Cap1; 5-methylcytidine and pseudouridine
- TNF-alpha production (in words) [2]: low but detectable levels
- TNF-alpha: 3 Donor Average [2]: 31 pg/mL
- G-CSF/TNF-alpha (ratio), PC Ratio ([2]; human PBMC, 3 donor averages): 153
- G-CSF: 3 Donor Average (human PBMC): 4742 pg/mL
- IFN-alpha production (in words) [3]: low but detectable levels
- IFN-alpha: 3 Donor Average [3]: 141 pg/mL
- G-CSF/IFN-alpha (ratio), PC Ratio ([3]; human PBMC, 3 donor averages): 34

B2: unmodified G-CSF: Unmodified G-CSF mRNA (SEQ ID NO: 1, Cap1), storage stability (nucleic acid, listed as Homo Sapiens)
chain: GGGAAAUAAGAGAGAAAAGAAGAGUAAGAAGAAAUAUAAGAGCCACCAUGGCCGGUCCCGCGACCCAAAGCCCCAUGAAACUUAUGGCCCUGCAGUUGCUGCUUUGGCACUCGGCCCUCUGGACAGUCCAAGAAGCGACUCCUCUCGGACCUGCCUCAUCGUUGCCGCAGUCAUUCCUUUUGAAGUGUCUGGAGCAGGUGCGAAAGAUUCAGGGCGAUGGAGCCGCACUCCAAGAGAAGCUCUGCGCGACAUACAAACUUUGCCAUCCCGAGGAGCUCGUACUGCUCGGGCACAGCUUGGGGAUUCCCUGGGCUCCUCUCUCGUCCUGUCCGUCGCAGGCUUUGCAGUUGGCAGGGUGCCUUUCCCAGCUCCACUCCGGUUUGUUCUUGUAUCAGGGACUGCUGCAAGCCCUUGAGGGAAUCUCGCCAGAAUUGGGCCCGACGCUGGACACGUUGCAGCUCGACGUGGCGGAUUUCGCAACAACCAUCUGGCAGCAGAUGGAGGAACUGGGGAUGGCACCCGCGCUGCAGCCCACGCAGGGGGCAAUGCCGGCCUUUGCGUCCGCGUUUCAGCGCAGGGCGGGUGGAGUCCUCGUAGCGAGCCACCUUCAAUCAUUUUUGGAAGUCUCGUACCGGGUGCUGAGACAUCUUGCGCAGCCGUGAAGCGCUGCCUUCUGCGGGGCUUGCCUUCUGGCCAUGCCCUUCUUCUCUCCCUUGCACCUGUACCUCUUGGUCUUUGAAUAAAGCCUGAGUAGGAAG
modifications: Cap1
- stable out to ([4]; stored at 25° C.): 48 h
- stable out to ([4]; stored at 37° C.): 6 h
- stable out to ([4]; stored at 50° C.): 2 h
- Percent Viability T1, 6 hours ([5]; T1, 6 hours): 101%
- Percent Viability T1, 24 hours ([5]; T1, 24 hours): 72%
- Percent Viability T2, 24 hours ([5]; T2, 24 hours): 74%
- Percent Viability T4, 24 hours ([5]; T4, 24 hours): 42%

B3: GCSF mRNA unmod: G-CSF mRNA (SEQ ID NO: 1) unmodified, 5′ cap of Cap1 (nucleic acid, listed as Homo Sapiens)
chain: GGGAAAUAAGAGAGAAAAGAAGAGUAAGAAGAAAUAUAAGAGCCACCAUGGCCGGUCCCGCGACCCAAAGCCCCAUGAAACUUAUGGCCCUGCAGUUGCUGCUUUGGCACUCGGCCCUCUGGACAGUCCAAGAAGCGACUCCUCUCGGACCUGCCUCAUCGUUGCCGCAGUCAUUCCUUUUGAAGUGUCUGGAGCAGGUGCGAAAGAUUCAGGGCGAUGGAGCCGCACUCCAAGAGAAGCUCUGCGCGACAUACAAACUUUGCCAUCCCGAGGAGCUCGUACUGCUCGGGCACAGCUUGGGGAUUCCCUGGGCUCCUCUCUCGUCCUGUCCGUCGCAGGCUUUGCAGUUGGCAGGGUGCCUUUCCCAGCUCCACUCCGGUUUGUUCUUGUAUCAGGGACUGCUGCAAGCCCUUGAGGGAAUCUCGCCAGAAUUGGGCCCGACGCUGGACACGUUGCAGCUCGACGUGGCGGAUUUCGCAACAACCAUCUGGCAGCAGAUGGAGGAACUGGGGAUGGCACCCGCGCUGCAGCCCACGCAGGGGGCAAUGCCGGCCUUUGCGUCCGCGUUUCAGCGCAGGGCGGGUGGAGUCCUCGUAGCGAGCCACCUUCAAUCAUUUUUGGAAGUCUCGUACCGGGUGCUGAGACAUCUUGCGCAGCCGUGAAGCGCUGCCUUCUGCGGGGCUUGCCUUCUGGCCAUGCCCUUCUUCUCUCCCUUGCACCUGUACCUCUUGGUCUUUGAAUAAAGCCUGAGUAGGAAG
modifications: Cap1
- G-CSF protein (female BALB/C mice): 605.6 pg/mL
- PC Ratio ([6]; G-CSF protein / IFN-alpha in mouse serum): 9
- IFN-alpha expression ([6]; mouse IFN-alpha in serum, I.M., 8 hours after dosing): 67.01 pg/mL
